Measured values as given in US20230406885A1, “CYCLIC PEPTIDES FOR TRAPPING INTERLEUKIN-1 BETA” (MERCK SHARP & DOHME LLC, priority 2022, published 2023).
*1 amine or outer side, *2 acyl side, *3 side chain or, on linkers, in order; H or OH if unused. [ ]: non-standard residue; d: D form. TyrEtNAc = L-tyrosine O-ethyl acetamide, (S)-3-(4-(2-acetamidoethoxy)phenyl)-2-aminopropanoic acid, CC(=O)NCCOc1ccc(C[C@H](N[*:1])C(=O)[*:2])cc1; PyrimAla4AcPip = (S)-3-(2-(4-acetylpiperazin-1-yl)pyrimidin-5-yl)-2-aminopropanoic acid, CC(=O)N1CCN(c2ncc(C[C@H](N[*:1])C(=O)[*:2])cn2)CC1; Prot4NHCH2CH2Ph = (2S,4R)-4-(phenethylamino)pyrrolidine-2-carboxylic acid, O=C([C@@H]1C[C@@H](N(CCc2ccccc2)[*:3])CN1[*:1])[*:2]; 3AzaTyrEtNAc = (S)-3-(6-(2-acetamidoethoxy)pyridin-3-yl)-2-aminopropanoic acid, CC(=O)NCCOc1ccc(C[C@H](N[*:1])C(=O)[*:2])cn1; Prot4NHBn = (2S,4R)-4-(benzylamino)pyrrolidine-2-carboxylic acid, O=C([C@@H]1C[C@@H](N(Cc2ccccc2)[*:3])CN1[*:1])[*:2]; Prot4NHEt = (2S,4R)-4-(ethylamino)pyrrolidine-2-carboxylic acid, CCN([C@@H]1C[C@@H](C(=O)[*:2])N([*:1])C1)[*:3]; Phe(4-(4-Ac-piperazinyl)) = CC(=O)N1CCN(c2ccc(C[C@H](N)C(=O)O)cc2)CC1; Trp(4-Cl)(βS-Me) = C[C@@H](c1c[nH]c2cccc(Cl)c12)[C@H](N)C(=O)O; Pro(trans-4-NH2) = O=C([C@@H]1C[C@@H](N[*:3])CN1[*:1])[*:2]; Trp(βS-Me,4-F) = C[C@@H](c1c[nH]c2cccc(F)c12)[C@H](N)C(=O)O; Bip(4'-COOH) = N[C@@H](Cc1ccc(-c2ccc(C(=O)O)cc2)cc1)C(=O)O; 1Nal(3S-Me) = C[C@@H](c1cccc2ccccc12)[C@H](N)C(=O)O; Ala(indazol-1-yl) = N[C@@H](Cn1ncc2ccccc21)C(=O)O; Ala(indolin-1-yl) = N[C@@H](CN1CCc2ccccc21)C(=O)O; Phe(4-COOH) = N[C@@H](Cc1ccc(C(=O)O)cc1)C(=O)O; h3Pal(5-CN) = N#Cc1cncc(CC[C@H](N)C(=O)O)c1; hTyr = N[C@@H](CCc1ccc(O)cc1)C(=O)O; dDab = NCC[C@@H](N)C(=O)O; dNMeA = CN[C@H](C)C(=O)O; Dap = NC[C@H](N)C(=O)O

B1: SEQ ID NO: 82 (peptide)
peptide: cyclo([Bip(4'-COOH)]W[Phe(4-COOH)]G[Prot4NHBn][1Nal(3S-Me)]D[dNMeA]G[Bip(4'-COOH)]W[Dap][dA][hTyr])
SMILES: C[C@@H]1C(=O)NCC(=O)N[C@@H](Cc2ccc(-c3ccc(C(=O)O)cc3)cc2)C(=O)N[C@@H](Cc2c[nH]c3ccccc23)C(=O)N[C@@H](CN)C(=O)N[C@H](C)C(=O)N[C@@H](CCc2ccc(O)cc2)C(=O)N[C@@H](Cc2ccc(-c3ccc(C(=O)O)cc3)cc2)C(=O)N[C@@H](Cc2c[nH]c3ccccc23)C(=O)N[C@@H](Cc2ccc(C(=O)O)cc2)C(=O)NCC(=O)N2C[C@H](NCc3ccccc3)C[C@H]2C(=O)N[C@@H]([C@@H](C)c2cccc3ccccc23)C(=O)N[C@@H](CC(=O)O)C(=O)N1C
B2: SEQ ID NO: 83 (peptide)
peptide: cyclo([Bip(4'-COOH)]W[Phe(4-COOH)]G[Prot4NHCH2CH2Ph][1Nal(3S-Me)]D[dNMeA]G[Bip(4'-COOH)]W[Dap][dA][hTyr])
SMILES: C[C@@H]1C(=O)NCC(=O)N[C@@H](Cc2ccc(-c3ccc(C(=O)O)cc3)cc2)C(=O)N[C@@H](Cc2c[nH]c3ccccc23)C(=O)N[C@@H](CN)C(=O)N[C@H](C)C(=O)N[C@@H](CCc2ccc(O)cc2)C(=O)N[C@@H](Cc2ccc(-c3ccc(C(=O)O)cc3)cc2)C(=O)N[C@@H](Cc2c[nH]c3ccccc23)C(=O)N[C@@H](Cc2ccc(C(=O)O)cc2)C(=O)NCC(=O)N2C[C@H](NCCc3ccccc3)C[C@H]2C(=O)N[C@@H]([C@@H](C)c2cccc3ccccc23)C(=O)N[C@@H](CC(=O)O)C(=O)N1C
B3: SEQ ID NO: 84 (peptide)
peptide: cyclo([Bip(4'-COOH)]W[Phe(4-COOH)]G[Prot4NHEt][1Nal(3S-Me)]D[dNMeA]G[Bip(4'-COOH)]W[Dap][dA][hTyr])
SMILES: CCN[C@@H]1C[C@H]2C(=O)N[C@@H]([C@@H](C)c3cccc4ccccc34)C(=O)N[C@@H](CC(=O)O)C(=O)N(C)[C@H](C)C(=O)NCC(=O)N[C@@H](Cc3ccc(-c4ccc(C(=O)O)cc4)cc3)C(=O)N[C@@H](Cc3c[nH]c4ccccc34)C(=O)N[C@@H](CN)C(=O)N[C@H](C)C(=O)N[C@@H](CCc3ccc(O)cc3)C(=O)N[C@@H](Cc3ccc(-c4ccc(C(=O)O)cc4)cc3)C(=O)N[C@@H](Cc3c[nH]c4ccccc34)C(=O)N[C@@H](Cc3ccc(C(=O)O)cc3)C(=O)NCC(=O)N2C1
B4: SEQ ID NO: 85 (peptide)
peptide: cyclo([Phe(4-(4-Ac-piperazinyl))]W[Phe(4-COOH)]G[Pro(trans-4-NH2)][Trp(4-Cl)(βS-Me)]D[dNMeA]G[Bip(4'-COOH)]WG[dDab][hTyr])
SMILES: CC(=O)N1CCN(c2ccc(C[C@@H]3NC(=O)[C@H](CCc4ccc(O)cc4)NC(=O)[C@@H](CCN)NC(=O)CNC(=O)[C@H](Cc4c[nH]c5ccccc45)NC(=O)[C@H](Cc4ccc(-c5ccc(C(=O)O)cc5)cc4)NC(=O)CNC(=O)[C@@H](C)N(C)C(=O)[C@H](CC(=O)O)NC(=O)[C@H]([C@@H](C)c4c[nH]c5cccc(Cl)c45)NC(=O)[C@@H]4C[C@@H](N)CN4C(=O)CNC(=O)[C@H](Cc4ccc(C(=O)O)cc4)NC(=O)[C@H](Cc4c[nH]c5ccccc45)NC3=O)cc2)CC1
B5: SEQ ID NO: 88 (peptide)
peptide: cyclo([PyrimAla4AcPip]W[Phe(4-COOH)]G[Pro(trans-4-NH2)][1Nal(3S-Me)]D[dNMeA]G[Bip(4'-COOH)]W[Dap][dA][hTyr])
SMILES: CC(=O)N1CCN(c2ncc(C[C@@H]3NC(=O)[C@H](CCc4ccc(O)cc4)NC(=O)[C@@H](C)NC(=O)[C@H](CN)NC(=O)[C@H](Cc4c[nH]c5ccccc45)NC(=O)[C@H](Cc4ccc(-c5ccc(C(=O)O)cc5)cc4)NC(=O)CNC(=O)[C@@H](C)N(C)C(=O)[C@H](CC(=O)O)NC(=O)[C@H]([C@@H](C)c4cccc5ccccc45)NC(=O)[C@@H]4C[C@@H](N)CN4C(=O)CNC(=O)[C@H](Cc4ccc(C(=O)O)cc4)NC(=O)[C@H](Cc4c[nH]c5ccccc45)NC3=O)cn2)CC1
B6: SEQ ID NO: 89 (peptide)
peptide: cyclo([TyrEtNAc]W[Phe(4-COOH)]G[Pro(trans-4-NH2)][1Nal(3S-Me)]A[dNMeA]G[Bip(4'-COOH)]W[Dap][dA][hTyr])
SMILES: CC(=O)NCCOc1ccc(C[C@@H]2NC(=O)[C@H](CCc3ccc(O)cc3)NC(=O)[C@@H](C)NC(=O)[C@H](CN)NC(=O)[C@H](Cc3c[nH]c4ccccc34)NC(=O)[C@H](Cc3ccc(-c4ccc(C(=O)O)cc4)cc3)NC(=O)CNC(=O)[C@@H](C)N(C)C(=O)[C@H](C)NC(=O)[C@H]([C@@H](C)c3cccc4ccccc34)NC(=O)[C@@H]3C[C@@H](N)CN3C(=O)CNC(=O)[C@H](Cc3ccc(C(=O)O)cc3)NC(=O)[C@H](Cc3c[nH]c4ccccc34)NC2=O)cc1
B7: SEQ ID NO: 9 (peptide)
peptide: cyclo([3AzaTyrEtNAc]W[Phe(4-COOH)]G[Pro(trans-4-NH2)][Trp(βS-Me,4-F)]D[dNMeA]G[Bip(4'-COOH)]KL[dA][hTyr])
SMILES: CC(=O)NCCOc1ccc(C[C@@H]2NC(=O)[C@H](CCc3ccc(O)cc3)NC(=O)[C@@H](C)NC(=O)[C@H](CC(C)C)NC(=O)[C@H](CCCCN)NC(=O)[C@H](Cc3ccc(-c4ccc(C(=O)O)cc4)cc3)NC(=O)CNC(=O)[C@@H](C)N(C)C(=O)[C@H](CC(=O)O)NC(=O)[C@H]([C@@H](C)c3c[nH]c4cccc(F)c34)NC(=O)[C@@H]3C[C@@H](N)CN3C(=O)CNC(=O)[C@H](Cc3ccc(C(=O)O)cc3)NC(=O)[C@H](Cc3c[nH]c4ccccc34)NC2=O)cn1
B8: SEQ ID NO: 90 (peptide)
peptide: cyclo([TyrEtNAc]W[Phe(4-COOH)]G[Pro(trans-4-NH2)][1Nal(3S-Me)]D[dNMeA]G[Bip(4'-COOH)][Ala(indazol-1-yl)]G[dDab][h3Pal(5-CN)])
SMILES: CC(=O)NCCOc1ccc(C[C@@H]2NC(=O)[C@H](CCc3cncc(C#N)c3)NC(=O)[C@@H](CCN)NC(=O)CNC(=O)[C@H](Cn3ncc4ccccc43)NC(=O)[C@H](Cc3ccc(-c4ccc(C(=O)O)cc4)cc3)NC(=O)CNC(=O)[C@@H](C)N(C)C(=O)[C@H](CC(=O)O)NC(=O)[C@H]([C@@H](C)c3cccc4ccccc34)NC(=O)[C@@H]3C[C@@H](N)CN3C(=O)CNC(=O)[C@H](Cc3ccc(C(=O)O)cc3)NC(=O)[C@H](Cc3c[nH]c4ccccc34)NC2=O)cc1
B9: SEQ ID NO: 91 (peptide)
peptide: cyclo([TyrEtNAc]W[Phe(4-COOH)]G[Pro(trans-4-NH2)][1Nal(3S-Me)]D[dNMeA]G[Bip(4'-COOH)][Ala(indolin-1-yl)]G[dDab][h3Pal(5-CN)])
SMILES: CC(=O)NCCOc1ccc(C[C@@H]2NC(=O)[C@H](CCc3cncc(C#N)c3)NC(=O)[C@@H](CCN)NC(=O)CNC(=O)[C@H](CN3CCc4ccccc43)NC(=O)[C@H](Cc3ccc(-c4ccc(C(=O)O)cc4)cc3)NC(=O)CNC(=O)[C@@H](C)N(C)C(=O)[C@H](CC(=O)O)NC(=O)[C@H]([C@@H](C)c3cccc4ccccc34)NC(=O)[C@@H]3C[C@@H](N)CN3C(=O)CNC(=O)[C@H](Cc3ccc(C(=O)O)cc3)NC(=O)[C@H](Cc3c[nH]c4ccccc34)NC2=O)cc1

The binders below were run against Recombinant human IL-1β (BioLegend 579404) (human, UniProt P01584 117-269) (assay: cell-based or functional assay).
With B1 the “MRC5 IC50” value was 0.0157 nM. With B2 the “MRC5 IC50” value was 0.0329 nM. With B3 the “MRC5 IC50” value was 0.0258 nM. With B4 the “MRC5 IC50” value was 0.0543 nM. In the case of B5, the “MRC5 IC50” value is reported as 0.0945 nM. B6 was tested, and the “MRC5 IC50” value was 0.271 nM. For B7, the “MRC5 IC50” value was 0.118 nM. In the case of B8, the “MRC5 IC50” value is reported as 0.0507 nM. B9 was tested, and the “MRC5 IC50” value was 0.0234 nM.
